Key:
OCT4;SOX2 = OCT4;SOX2 (human;human, UniProt Q01860;P48431 1-360;1-317, |); test: EMSA; 19 nM OCT4, 16 nM SOX2; high occupancy; 12.5 mM K-Hepes pH 7.6, 50 mM NaCl, 1 mM MgCl2, 10% glycerol, 0.1% NP-40, 0.1 mg/mL BSA, 1 mM DTT, 1 ug/uL poly dG:dC, 2 nM probe, 30 C 15 min; 4% acrylamide gel, 0.5X TGE; settings: protein: recombinant;recombinant; tags: 6xHis (pSKB3-6H-TEV);6xHis (pSKB3-6H-TEV); copies: 1;1; label: Cy5 on strand 2 (extended primer S1); blunt
OCT4 = OCT4 (human, UniProt Q01860 1-360); test: EMSA; 19 nM OCT4; OCT4-only band is the majority of shifted DNA in the OCT4 + SOX2 reaction; 12.5 mM K-Hepes pH 7.6, 50 mM NaCl, 1 mM MgCl2, 10% glycerol, 0.1% NP-40, 0.1 mg/mL BSA, 1 mM DTT, 1 ug/uL poly dG:dC, 2 nM probe, 30 C 15 min; 4% acrylamide gel, 0.5X TGE; settings: protein: recombinant; tags: 6xHis (pSKB3-6H-TEV); label: Cy5 on strand 2 (extended primer S1); blunt
Chain of OCT4 (Q01860 whole entry): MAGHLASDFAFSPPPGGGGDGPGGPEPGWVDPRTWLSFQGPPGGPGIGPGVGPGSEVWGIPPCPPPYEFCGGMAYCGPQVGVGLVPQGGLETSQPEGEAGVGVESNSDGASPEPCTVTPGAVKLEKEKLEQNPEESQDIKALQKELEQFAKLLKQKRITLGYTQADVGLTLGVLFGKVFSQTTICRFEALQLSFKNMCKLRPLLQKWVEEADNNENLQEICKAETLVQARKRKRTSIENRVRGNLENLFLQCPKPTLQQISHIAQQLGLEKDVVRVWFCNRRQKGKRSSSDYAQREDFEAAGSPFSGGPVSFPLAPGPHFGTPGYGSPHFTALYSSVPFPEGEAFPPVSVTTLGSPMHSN

Chain of OCT4;SOX2 (Q01860 whole entry, chain 1 of 2): as the sequence (Q01860 whole entry) above
Chain of OCT4;SOX2 (P48431 whole entry, chain 2 of 2): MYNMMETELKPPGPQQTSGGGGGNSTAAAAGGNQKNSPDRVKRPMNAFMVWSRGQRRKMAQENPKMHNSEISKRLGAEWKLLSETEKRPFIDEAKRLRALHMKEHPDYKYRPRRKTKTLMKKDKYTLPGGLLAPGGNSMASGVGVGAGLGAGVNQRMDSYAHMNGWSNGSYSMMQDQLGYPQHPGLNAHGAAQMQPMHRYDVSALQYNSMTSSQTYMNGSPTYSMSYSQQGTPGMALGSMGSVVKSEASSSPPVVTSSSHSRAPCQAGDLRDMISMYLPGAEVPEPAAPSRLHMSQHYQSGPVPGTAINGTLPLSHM

Row | Binder | binding result (OCT4;SOX2) | binding result (OCT4)
1 | Nanog OS site probe (dsDNA) DNA 1: GTTACTCTGCAGCTACTTTTGCATTACAATGGCCTTGGTGAGACTGG DNA 2: CCAGTCTCACCAAGGCCATTGTAATGCAAAAGTAGCTGCAGAGTAAC | binds | 
2 | Klf4-E1 OS site probe (dsDNA) DNA 1: GTTACTCTGCAGCTACCTTTGCATATCAAATGCCTTGGTGAGACTGG DNA 2: CCAGTCTCACCAAGGCATTTGATATGCAAAGGTAGCTGCAGAGTAAC |  | binds

From PMC11441684, “A suboptimal OCT4-SOX2 binding site facilitates the naïve-state specific function of a Klf4 enhancer”
